Test results reported in US20050002904A1, “Uses of vascular endothelial growth factor and type I collagen inducible protein (VCIP)” (priority 2003, published 2005).

Target: αvβ3 and α5β1 integrins presented on adjacent cells
Assay: cell-based or functional assay

| Binder | % cell aggregates of WT cells with … 10 nM [%] | % cell aggregates of WT cells with … 30 nM [%] | % cell aggregates of WT cells with … 50 nM [%] | % cell aggregates, HEK cells stably expressing pLNCX2-VCIP-RGD (WT), no substance [%] | % cell aggregates, HEK cells stably expressing pLNCX2-VCIP-RGE (MT), no substance [%] |
| --- | --- | --- | --- | --- | --- |
| NYRCRGDDSK [peptide …] | 67 | 46 | 28 |  |  |
| wild-type VCIP/PAP2b, HA-tagged, expressed from pLNCX2-VCIP-RGD, O14495 1-311 (protein) YPYDVPDYAYPYDVPDYAYPYDVPDYAMQNYKYDKAIVPESKNGGSPALNNNPRRSGSKRVLLICLDLFCLFMAGLPFLIIETSTIKPYHRGFYCNDESIKYPLKTGETINDAVLCAVGIVIAILAIITGEFYRIYYLKKSRSTIQNPYVAALYKQVGCFLFGCAISQSFTDIAKVSIGRLRPHFLSVCNPDFSQINCSEGYIQNYRCRGDDSKVQEARKSFFSGHASFSMYTMLYLVLYLQARFTWRGARLLRPLLQFTLIMMAFYTGLSRVSDHKHHPSDVLAGFAQGALVACCIVFFVSDLFKTKTTLSLPAPAIRKEILSPVDIIDRNNHHNMM |  |  |  | 94 |  |
| mutant VCIP/PAP2b-RGE, HA-tagged, expressed from pLNCX2-VCIP-RGE, O14495 1-311 (protein) YPYDVPDYAYPYDVPDYAYPYDVPDYAMQNYKYDKAIVPESKNGGSPALNNNPRRSGSKRVLLICLDLFCLFMAGLPFLIIETSTIKPYHRGFYCNDESIKYPLKTGETINDAVLCAVGIVIAILAIITGEFYRIYYLKKSRSTIQNPYVAALYKQVGCFLFGCAISQSFTDIAKVSIGRLRPHFLSVCNPDFSQINCSEGYIQNYRCRGEDSKVQEARKSFFSGHASFSMYTMLYLVLYLQARFTWRGARLLRPLLQFTLIMMAFYTGLSRVSDHKHHPSDVLAGFAQGALVACCIVFFVSDLFKTKTTLSLPAPAIRKEILSPVDIIDRNNHHNMM |  |  |  |  | 0 |
| NYRCRADDSK [mutant peptide …] | 92 | 89 | 90 |  |  |
